Source: article PMC6036246, “SAV4189, a MarR-Family Regulator in Streptomyces avermitilis, Activates Avermectin Biosynthesis” (Frontiers in Microbiology, 2018)

Key:
[1] = biological target: T1, SAV4189 (His6-SAV4189) (Streptomyces avermitilis, UniProt Q82FR3); assay: EMSA, release of SAV4189 from DIG-labelled promoter probe […]p; type: binding; conditions: 62.5 nM His6-SAV4189, antibiotic in water
T1 construct: gene SAVERM_4189; full-length, 171 residues (516-bp CDS), His6-tagged from pET-28a(+) (NdeI/EcoRI), E. coli BL21(DE3), Ni-NTA; tag removal not mentioned; MarR family said to be generally homodimeric
T1 sequence (Q82FR3 1-171): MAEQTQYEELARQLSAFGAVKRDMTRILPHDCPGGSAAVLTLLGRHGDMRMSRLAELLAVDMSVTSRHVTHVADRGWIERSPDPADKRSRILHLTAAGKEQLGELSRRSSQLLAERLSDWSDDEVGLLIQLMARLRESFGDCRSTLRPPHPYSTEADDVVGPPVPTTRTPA

[2] = test system: T2, His6-SAV4189 (Streptomyces avermitilis), ORF:1042fb45; assay: EMSA; conditions: EMSA as in Luo et al. 2014 (buffer not given), 0.15-0.3 nM DIG probe; footprinting 400 ng probe in 25 ul, 30 min at 25 C
T2 sequence: T1 sequence (Q82FR3 1-171)

[3] = test system: T2, His6-SAV4189 (Streptomyces avermitilis), ORF:1042fb45; assay: competition; conditions: EMSA as in Luo et al. 2014 (buffer not given), 0.15-0.3 nM DIG probe; footprinting 400 ng probe in 25 ul, 30 min at 25 C

Compound | EMSA, release of SAV4189 from DIG-labelled promoter probe 4189p [1] | binding [2] | binding [3]
CN[C@H]1C[C@@H](N)[C@H](O)[C@@H](O[C@@H]2O[C@H](CO)[C@H](O)[C@@H]3OC4(O[C@H]23)O[C@H]([C@@H](N)CO)[C@H](O)[C@H](O)[C@H]4O)[C@@H]1O (stereo partly drawn) [HygB, hygromycin B] | SAV4189-4189p complex was disrupted in dose-dependent manner by exogenous HygB and Thi | – | –
AATTGCTGGCCGAAGCCCGCGCGGGTGTGCAGGTCTGAAACCGCCGGGGGTGAGGTTAGGGGGGTGGGAAAACCTAGGGGTTGGTCCCCGGGGTGGCGCCGGATAGTGTCGAAACGGCTGAAACAGCATTACTGGAGCGGTTGAGAAAAGCAATCCCAGATTCTGTGCCAACGCGGGGAGAACGAGTGGAACTGGCGGATTCCGGCGACCTTTTGGAAATATTCGAGCGTACCGAGGAAATGGCGCGGCTCGCGCATGTGCTGGCGAGTGCCGGACAGGGCGAAGGCGGTGTGGTCCTCG (double strand) [olmRIIp] | – | binds | –
CATCACACCTCCCGTATTCGTTGCTTAGGGCAACCATAGGAAAGTTGGTTGCCGCAGGCAAACTAAATAGGGTCTTCAGGGATAAAAACTTGGCAAAGGCAAGTATTGGCAGGCGTAAAGCCGCAGGTGGGGAGGTCAGGAGCGGTCG (double strand) [4189p] | – | binds | binds
CGTGTTCACTTCAGAAACCTCCCTGACGAGGCCGCGACGTTGCGGCCGAGGTGGCTGGAAGTCAACTCGGCCACACGTGCGACGTCAAGAAGTAAATACTTAACGAGATGGCAACGGTGCCATGCGTTCTCTAAGTGAAGGCAGGGGTGGCCGCGGAAAGCGTGCCATCCAAAAGGGTCGAATCGCCCATCTCGCTCAACGCGAGAGCGAGCGCTCCGAGCACCTCGGCGCGGCCCCCAAGTGCCCCTGGAAGCACCGAGAGTTGAC (double strand) [xylFp] | – | no binding | –
GACGACTCATATGCGGCAGGCCCTCCCCAGGACGTCGACAGCCGAAAGGCCTTTGGTTGTCCCCACAACCAGTTGTGACGAGACGACTCTATCCAGCAATCGCCCTCCCGCATATCCACTCGTCAAAGGCAACCCTCTCGGGCCATCTGTGCAGGTCAAGTGACCGGAGGGTAGCTAAGACCGTACCGCGCGGCAGTGCCCGAGCGGTGCGGCCTTGGCAACGTTGATC (double strand) [savR1p] | – | no binding | –
GACTGCCGGAACTCCATGCGCTGTGCCCTCCGGTTCGTGGTGTTACTTGGTTTTACCAAGTCAGAGCTTGGAAAGTCCAACAACATGTCTAGACTGCGTCGCATGCCACCTCGCCGAAGCTACGACCAGTACTGTTCCGCGGCCCGAGCCCTCGACGCCGTCGGTGACCGCTGGACCCTCCTGATCGTCCG (double strand) [aspB1p] | – | binds | –
TCATGGGATCTCCGGTGCCGAAGAGGGGACGAGAGCCACTCGGATTTTCTATGGTTAGGCTTACCTAAGTCAACGGGTTCCCGACATCCCGTCGGTAAAATCGTACCCCCGATTCCGATCAAGCCCACAGGAAAAGCCCGCCCCCCGAAGGGAGCGGGCTTTCGCGCGGCGGGCGGGACTACGGCAGCGTCAGGATGTCCGCCCCGCTGTCCGT (double strand) [hmuOp] | – | binds | –
TCCGGACTTGACTGATCTCGACAGTACTTGGCGCACTTGGCCCACTTGGGATCATTGCGGCGGTTGTTACCGCCCGTAAAGCACCATAAGCGCAGCGGGCGGGAGTTCAAACCCGATCAGCTTGGATAAGGTAAGCCTTACCTGTCAACGATCGTGAAGTCGGTGGTCCCCGCATGCCCTCGCCCGTCGCGGATGCCTACGCAAGGCTGACCGA (double strand) [2073p] | – | binds | –
TGACCCCTCCCGCCACTTCCCCCGGCACTTTCCATCGCTTCTCGCCGTGAATTGCAGAGATTCCCCACACACTTATCCCGTTATTAATTCAGAACAGCTTCCCGCATTCTTCTGCCCGCTTTCTTTCGTGCTAAACGCAAAGATTTCGCGAACACCAACCGGCTTAATTCGGGCAGGTCCCGCACGGGTCGTCCACTTGTGATCGACTCCACATCGCACCCCTTTCCTCCCGTATTTTCCGGACAAAATGGGGGTTATCGACGC (double strand) [ectAp] | – | binds | –
TTGATGACCTCGACCATGTGCACCGGGATACGGATGGTGCGGGCCTGGTCGGCCATGGCGCGGGTGATCGCCTGACGGATCCACCAGGTGGCGTACGTGGAGAACTTGTAGCCCTTGG (double strand) [hrdB] | – | no binding | no binding
